Reference: patent publication US20260150817A1 (LEVERAGEN, published 2026)
Changes are numbered by the printed parent chain. Read-outs that look alike come from different tables or passages of the source.

B1: M320_5 Nb-Fc (Fc fusion)
chain: EVQLQQSGPELVKPGASVKMSCKASGYTFTDYYIKWEKQSHGKSLEWIGDINPKNGETFYNQQFKGKATLTVDKSSSTAYMQLNSLTSEDSAVYYCARKEYGDYGYAVDYWGQGTSVTVSS
notes: also called LVGN-S3205
B2: M2S320_75 Nb-Fc (Fc fusion)
chain: B1 chain with I34M, E37L, S40N, K54N, E57D, Q63K, K74T, V108T
notes: also called LVGN-S32075
B3: M2S320_377 Nb-Fc (Fc fusion)
chain: B1 chain with I34V, E37K, K54N, E57D, Q63K, G66D, D103N, Y104F
notes: also called LVGN-S320377
B4: M2S521_623 Nb-Fc (Fc fusion)
chain: EVQLQQSGPELVKPGASVKISCKASGYTFTDYYMKWEKQSHGKSLEWIGDINPNNGGTRYNQKFRGKATLTVDKSSSTAYMELRSLTSEDSAVYYCARLEDDYYGYAVDYWGQGTSVTVSS
notes: also called LVGN-S521623
B5: M2S521_193 Nb-Fc (Fc fusion)
chain: B4 chain with E37V, T58A, R65K, K67R, A97S, D102G
notes: also called LVGN-S521193
B6: M2S521_72 Nb-Fc (Fc fusion)
chain: B4 chain with E37A, D50H, N54V, G57D, R59S, R65K, A79V, D102G, A107T, V108M
notes: also called LVGN-S52172
B7: MS521_35 Nb-Fc (Fc fusion)
chain: EVQLQQSGPELVKPGASVKISCKASGYTFTDYYMKWVKQRHGQSLEWIGNINPTNGDTNYSQNFKGKATLTVDKSSTTAYMELRSLTSEDSAVYYCARLEDGYYGYAVDYWGQGTSVTVSS
notes: also called LVGN-S52135
B8: M2S521_378 Nb-Fc (Fc fusion)
chain: B4 chain with E37V, N54K, R59N, R65K, G66D, D102G, V108I, G112S
notes: also called LVGN-S521378

Tests used:
[1] = molecular target: T1, SARS-Cov2 Spike Active Trimer SAT (R&D Systems; Catalog No. 10549-CV) (SARS-CoV-2, UniProt P0DTC2 16-1211)
[2] = molecular target: T1, SARS-Cov2 Spike Active Trimer SAT (R&D …); assay: SPR (Carterra)
[3] = molecular target: T1, SARS-Cov2 Spike Active Trimer SAT (R&D …); remark: listed apart in the source
[4] = molecular target: T1, SARS-Cov2 Spike Active Trimer SAT (R&D …); assay: ELISA, serially diluted purified Nb-Fc against SAT antigen

Binder	Kd [1]	koff [1]	kon [1]	Kd [2]	Kd [3]	EC50 [4]
B1	1.06 nM	0.000143 s⁻¹	135000 M⁻¹ s⁻¹	3.17 nM	1.21 nM	0.024 nM
B2	–	–	–	–	–	0.068 nM
B3	–	–	–	–	–	0.097 nM
B4	–	–	–	–	–	0.054 nM
B5	–	–	–	–	–	0.085 nM
B6	–	–	–	–	–	0.063 nM
B7	–	0.000685 s⁻¹	75300 M⁻¹ s⁻¹	5.3 nM	9.09 nM	0.024 nM
B8	–	–	–	–	–	0.081 nM
